Columns and labels:
[1] = target: CD3 on cells (PBMC, primary patient samples); assay: flow cytometry on a primary patient sample, control panel: CD3-V450 staining is kept (reference for the bionic panel)
[2] = target: CD3 on cells (PBMC, primary patient samples); assay: flow cytometry, PBMC treated with C-IgG, dot plot CD38-PE against CD3-V450; reference panel for the treated samples; unstained panel: CD3 0%

With non-binding IgG antibody as the substance, how does the % CD3-V450 stained cells (control panel) [1] read?
Its % CD3-V450 stained cells (control panel) is 25%.

What about the CD3 (% of PBMC in the CD3-V450 positive, CD38-PE negative quadrant) [2] of the same substance?
The CD3 (% of PBMC in the CD3-V450 positive, CD38-PE negative quadrant) was 25%.

Reference: US20260008864A1
